Source: the supplement of paper PMC11246515
± gives the standard deviation of the averaged measurements.

Assay: total protein half-life in vivo (active degradation + dilution); higher = more stable protein
[1] = E. coli NCM3722 delta-clpP delta-lon delta-hslV, growth: N-lim chemostat, doubling time 6 h
[2] = E. coli NCM3722 delta-clpP, growth: N-lim chemostat, doubling time 6 h
[3] = E. coli NCM3722 delta-hslV, growth: N-lim chemostat, doubling time 6 h
[4] = E. coli NCM3722 delta-lon, growth: N-lim chemostat, doubling time 6 h
[5] = E. coli NCM3722 delta-smpB, growth: N-lim chemostat, doubling time 6 h
[6] = wild type E. coli NCM3722, growth: C-lim chemostat, doubling time 3 h
[7] = wild type E. coli NCM3722, growth: C-lim chemostat, doubling time 6 h
[8] = wild type E. coli NCM3722, growth: C-lim chemostat, doubling time 12 h
[9] = wild type E. coli NCM3722, growth: N-lim chemostat, doubling time 6 h
[10] = wild type E. coli NCM3722, growth: N-lim chemostat, doubling time 12 h
[11] = wild type E. coli NCM3722, growth: P-lim chemostat, doubling time 6 h
[12] = wild type E. coli NCM3722, growth: P-lim chemostat, doubling time 12 h

Sequence | total protein half-life in vivo [1] [h] | total protein half-life in vivo [2] [h] | total protein half-life in vivo [3] [h] | total protein half-life in vivo [4] [h] | total protein half-life in vivo [5] [h] | total protein half-life in vivo [6] [h] | total protein half-life in vivo [7] [h] | total protein half-life in vivo [8] [h] | total protein half-life in vivo [9] [h] | total protein half-life in vivo [10] [h] | total protein half-life in vivo [11] [h] | total protein half-life in vivo [12] [h]
MSEQETRGANEAIDFNDELRNRREKLAALRQQGVAFPNDFRRDHTSDQLHEEFDAKDNQELESLNIEVSVAGRMMTRRIMGKASFVTLQDVGGRIQLYVARDSLPEGVYNDQFKKWDLGDIIGARGTLFKTQTGELSIHCTELRLLTKALRPLPDKFHGLQDQEVRYRQRYLDLIANDKSRQTFVVRSKILAAIRQFMVARGFMEVETPMMQVIPGGASARPFITHHNALDLDMYLRIAPELYLKRLVVGGFERVFEINRNFRNEGISVRHNPEFTMMELYMAYADYHDLIELTESLFRTLAQEVLGTTKVTYGEHVFDFGKPFEKLTMREAIKKYRPETDMADLDNFDAAKALAESIGITVEKSWGLGRIVTEIFDEVAEAHLIQPTFITEYPAEVSPLARRNDVNPEITDRFEFFIGGREIGNGFSELNDAEDQAERFQEQVNAKAAGDDEAMFYDEDYVTALEYGLPPTAGLGIGIDRMIMLFTNSHTIRDVILFPAMRPQK [P0A8N5] | 5.8 ± 0.78 | 5.16 ± 0.085 | 4.88 ± 0.071 | 5.06 ± 0.16 | 4.87 ± 0.087 | 3.05 ± 0.11 | 5.71 ± 0.27 | 9.948 ± 0.028 | 4.74 ± 0.36 | 7.77 ± 0.82 | 5.55 ± 0.27 | 11.2 ± 0.22
MSEQHAQGADAVVDLNNELKTRREKLANLREQGIAFPNDFRRDHTSDQLHAEFDGKENEELEALNIEVAVAGRMMTRRIMGKASFVTLQDVGGRIQLYVARDDLPEGVYNEQFKKWDLGDILGAKGKLFKTKTGELSIHCTELRLLTKALRPLPDKFHGLQDQEARYRQRYLDLISNDESRNTFKVRSQILSGIRQFMVNRGFMEVETPMMQVIPGGAAARPFITHHNALDLDMYLRIAPELYLKRLVVGGFERVFEINRNFRNEGISVRHNPEFTMMELYMAYADYKDLIELTESLFRTLAQDILGKTEVTYGDVTLDFGKPFEKLTMREAIKKYRPETDMADLDNFDSAKAIAESIGIHVEKSWGLGRIVTEIFEEVAEAHLIQPTFITEYPAEVSPLARRNDVNPEITDRFEFFIGGREIGNGFSELNDAEDQAQRFLDQVAAKDAGDDEAMFYDEDYVTALEHGLPPTAGLGIGIDRMVMLFTNSHTIRDVILFPAMRPVK [P0A8N3] | 5.76 ± 0.38 | 5.45 ± 0.16 | 5.23 ± 0.14 | 5.58 ± 0.26 | 5.19 ± 0.12 | 3.07 ± 0.11 | 5.894 ± 0.022 | 10.3 ± 0.74 | 4.98 ± 0.45 | 8.8 ± 0.29 | 5.67 ± 0.29 | 10.6 ± 0.79
MSEQNNTEMTFQIQRIYTKDISFEAPNAPHVFQKDWQPEVKLDLDTASSQLADDVYEVVLRVTVTASLGEETAFLCEVQQGGIFSIAGIEGTQMAHCLGAYCPNILFPYARECITSMVSRGTFPQLNLAPVNFDALFMNYLQQQAGEGTEEHQDA [P0AG86] | 5.809 ± 0.028 | 5.336 ± 0.019 | – | 6.08 ± 0.59 | 5.16 ± 0.59 | 2.91 ± 0.79 | 7.35 ± 0.53 | 11.2 ± 1.2 | 5.17 ± 0.34 | 9.15 | – | 13.8 ± 2.5
MSESLRIIFAGTPDFAARHLDALLSSGHNVVGVFTQPDRPAGRGKKLMPSPVKVLAEEKGLPVFQPVSLRPQENQQLVAELQADVMVVVAYGLILPKAVLEMPRLGCINVHGSLLPRWRGAAPIQRSLWAGDAETGVTIMQMDVGLDTGDMLYKLSCPITAEDTSGTLYDKLAELGPQGLITTLKQLADGTAKPEVQDETLVTYAEKLSKEEARIDWSLSAAQLERCIRAFNPWPMSWLEIEGQPVKVWKASVIDTATNAAPGTILEANKQGIQVATGDGILNLLSLQPAGKKAMSAQDLLNSRREWFVPGNRLV | 5.19 ± 0.35 | 4.68 ± 0.25 | 5.38 ± 1 | 6.55 ± 0.13 | 4.49 ± 0.29 | 3.118 ± 0.012 | 5.91 ± 0.49 | 8.28 ± 1.2 | 4.84 ± 0.38 | 7.62 ± 0.9 | 5.62 ± 0.28 | 10.1 ± 0.96
MSETKNELEDLLEKAATEPAHRPAFFRTLLESTVWVPGTAAQGEAVVEDSALDLQHWEKEDGTSVIPFFTSLEALQQAVEDEQAFVVMPVRTLFEMTLGETLFLNAKLPTGKEFMPREISLLIGEEGNPLSSQEILEGGESLILSEVAEPPAQMIDSLTTLFKTIKPVKRAFICSIKENEEAQPNLLIGIEADGDIEEIIQATGSVATDTLPGDEPIDICQVKKGEKGISHFITEHIAPFYERRWGGFLRDFKQNRII [P0AFZ1] | 3.64 | 3.49 ± 0.42 | 2.73 | 3.96 ± 0.78 | 2.39 ± 0.091 | 2.44 | 4.53 ± 0.38 | 6.76 ± 0.27 | 2.81 | 4.38 | 3.65 | 7.61
MSFATISVIGLGYIGLPTAAAFASRQKQVIGVDINQHAVDTINRGEIHIVEPDLASVVKTAVEGGFLRASTTPVEADAWLIAVPTPFKGDHEPDMTYVESAARSIAPVLKKGALVILESTSPVGSTEKMAEWLAEMRPDLTFPQQVGEQADVNIAYCPERVLPGQVMVELIKNDRVIGGMTPVCSARASELYKIFLEGECVVTNSRTAEMCKLTENSFRDVNIAFANELSLICADQGINVWELIRLANRHPRVNILQPGPGVGGHCIAVDPWFIVAQNPQQARLIRTAREVNDHKPFWVIDQVKAAVADCLAATDKRASELKIACFGLAFKPNIDDLRESPAMEIAELIAQWHSGETLVVEPNIHQLPKKLTGLCTLAQLDEALATADVLVMLVDHSQFKVINGDNVHQQYVVDAKGVWR | 5.3 ± 0.14 | – | 5.1 ± 0.76 | 4.6415 ± 0.0014 | 4.11 ± 0.081 | 2.91 ± 0.71 | 7.21 ± 1.1 | 9.93 ± 3 | 5 ± 0.43 | 8.104 ± 0.048 | 5.77 ± 0.07 | 12.5 ± 1.5
MSFDPTGYTLAHEHLHIDLSGFKNNVDCRLDQYAFICQEMNDLMTRGVRNVIEMTNRYMGRNAQFMLDVMRETGINVVACTGYYQDAFFPEHVATRSVQELAQEMVDEIEQGIDGTELKAGIIAEIGTSEGKITPLEEKVFIAAALAHNQTGRPISTHTSFSTMGLEQLALLQAHGVDLSRVTVGHCDLKDNLDNILKMIDLGAYVQFDTIGKNSYYPDEKRIAMLHALRDRGLLNRVMLSMDITRRSHLKANGGYGYDYLLTTFIPQLRQSGFSQADVDVMLRENPSQFFQ | 4.42 | – | – | 6.12 | 3.08 ± 0.51 | – | – | 9.94 | 4.97 | – | – | 15.1
